Assay results published in patent publication US20230054202A1 (ZYDUS LIFESCIENCES, published 2023).

What was measured:
[1] = molecular target: T1, recombinant human neonatal Fc receptor (rhFcRn), Sino Biologics (human, UniProt P55899 24-297; P61769 21-119); experiment: SPR (ProteOn XPR36), rhFcRn immobilized on GLC chip, antibody injected, PBS pH 6.0, 25 C
T1 construct: Bought protein
Experimental: The kinetic constants for the binding of antibodies to recombinant human neonatal Fc receptor (hFcRn) were determined by Surface plasmon resonance-based measurement using the ProteOn XPR36 (Bio-Rad). Recombinant rhFcRn receptor (Sino Biologics) was immobilized on a GLC chip following manufacturer's instruction. […] Reactions were carried in PBS (pH 6.0, 0.005% Surfactant P20) at 25° C. After each sample run, the chip surface was regenerated using PBS, pH 7.4. The data, in the form of sensograms, was analysed using the data-fitting programs in the ProteOn system.

[2] = molecular target: T2, native human purified properdin (Quidel; Cat No: A412) (human, UniProt P27918 28-469); experiment: SPR (ProteOn XPR36), human properdin amine-coupled on GLC chip, mAb injected, 25 C, PBS pH 7.4
T2 construct: mature; Native purified commercial protein; In the haemolysis assays the properdin is the one present in normal human serum; also called human properdin; factor P
Experimental: The kinetic rate constants for the binding of anti properdin candidates to native human purified properdin (Quidel; Cat No: A412) were determined by Surface plasmon resonance-based measurement using the ProteOn XPR36 (Bio-Rad). All binding measurements were performed in PBS (pH 7.4, 0.005% Surfactant P20) at 25° C. To measure the binding rate constants of properdin to the mAbs, human properdin was immobilized onto a GLC sensor chip using amine coupling chemistry. […] The data, in the form of sensograms were analysed using data-fitting programs integrated in the ProteOn system. Binding affinities in terms of KD value are provided for tested antibodies in table 7.

[3] = molecular target: T2, native human purified properdin …; experiment: SPR, purified hybridoma antibody on human properdin

T1 sequence (P55899 24-297 limits assumed, chain 1 of 2): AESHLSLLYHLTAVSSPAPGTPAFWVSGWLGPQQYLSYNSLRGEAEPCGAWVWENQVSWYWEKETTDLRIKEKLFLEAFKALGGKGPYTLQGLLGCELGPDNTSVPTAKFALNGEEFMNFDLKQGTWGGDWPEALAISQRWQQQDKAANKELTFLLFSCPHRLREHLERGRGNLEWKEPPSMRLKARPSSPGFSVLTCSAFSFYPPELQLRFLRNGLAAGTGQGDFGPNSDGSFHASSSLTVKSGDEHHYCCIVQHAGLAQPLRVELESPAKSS
T1 sequence (P61769 21-119 limits assumed, chain 2 of 2): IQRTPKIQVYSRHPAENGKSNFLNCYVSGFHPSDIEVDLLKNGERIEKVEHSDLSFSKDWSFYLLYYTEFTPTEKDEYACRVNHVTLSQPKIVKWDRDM
T2 sequence (P27918 28-469): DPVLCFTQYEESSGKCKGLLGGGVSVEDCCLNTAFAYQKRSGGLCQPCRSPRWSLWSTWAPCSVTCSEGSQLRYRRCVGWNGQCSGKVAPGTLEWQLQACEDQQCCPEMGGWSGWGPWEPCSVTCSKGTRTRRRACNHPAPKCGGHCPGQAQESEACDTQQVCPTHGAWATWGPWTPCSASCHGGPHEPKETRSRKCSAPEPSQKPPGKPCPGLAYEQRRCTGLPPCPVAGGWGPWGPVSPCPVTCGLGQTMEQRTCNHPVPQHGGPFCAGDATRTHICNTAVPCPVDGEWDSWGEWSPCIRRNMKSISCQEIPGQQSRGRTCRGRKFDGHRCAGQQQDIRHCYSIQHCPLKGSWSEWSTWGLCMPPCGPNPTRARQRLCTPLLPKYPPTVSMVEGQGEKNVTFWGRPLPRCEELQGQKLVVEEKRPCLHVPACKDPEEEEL

B1: P15 (GLS) (humanized version of 103B2 with GLS in constant region) (antibody, human IgG4 S228P)
heavy: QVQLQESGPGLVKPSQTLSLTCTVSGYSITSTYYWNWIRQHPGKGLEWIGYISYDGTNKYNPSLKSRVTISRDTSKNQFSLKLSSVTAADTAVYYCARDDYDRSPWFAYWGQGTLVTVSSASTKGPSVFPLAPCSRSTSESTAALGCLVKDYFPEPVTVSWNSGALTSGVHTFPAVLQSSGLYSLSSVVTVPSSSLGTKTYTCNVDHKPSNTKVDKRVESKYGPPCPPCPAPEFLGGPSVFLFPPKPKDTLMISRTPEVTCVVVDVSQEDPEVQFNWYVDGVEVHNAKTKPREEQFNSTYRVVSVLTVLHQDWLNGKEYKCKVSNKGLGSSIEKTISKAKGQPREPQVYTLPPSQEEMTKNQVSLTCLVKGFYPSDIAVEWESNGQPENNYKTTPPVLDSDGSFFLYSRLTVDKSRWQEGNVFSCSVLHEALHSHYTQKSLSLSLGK
VL: DIQMTQSPSSLSASVGDRVTITCLASQTIGTWLAWYQQKPGKAPKLLIYAATSLADGVPSRFSGSGSGTDFTLTISSLQPEDFATYYCQQLYSTPWTFGGGTKLEIKR
notes: also called pZRCIII Hyg P15LC-P15HC (IgG4 GLS); copies: 2 + 2
- Kd [1]: 66 nM
- koff [1]: 0.0329 s⁻¹
- kon [1]: 502000 M⁻¹ s⁻¹
- Kd [2]: 0.162 nM
- koff [2]: 0.000128 s⁻¹
- kon [2]: 792000 M⁻¹ s⁻¹

B2: P15 (humanized version of 103B2) (antibody, human IgG4 S228P)
heavy: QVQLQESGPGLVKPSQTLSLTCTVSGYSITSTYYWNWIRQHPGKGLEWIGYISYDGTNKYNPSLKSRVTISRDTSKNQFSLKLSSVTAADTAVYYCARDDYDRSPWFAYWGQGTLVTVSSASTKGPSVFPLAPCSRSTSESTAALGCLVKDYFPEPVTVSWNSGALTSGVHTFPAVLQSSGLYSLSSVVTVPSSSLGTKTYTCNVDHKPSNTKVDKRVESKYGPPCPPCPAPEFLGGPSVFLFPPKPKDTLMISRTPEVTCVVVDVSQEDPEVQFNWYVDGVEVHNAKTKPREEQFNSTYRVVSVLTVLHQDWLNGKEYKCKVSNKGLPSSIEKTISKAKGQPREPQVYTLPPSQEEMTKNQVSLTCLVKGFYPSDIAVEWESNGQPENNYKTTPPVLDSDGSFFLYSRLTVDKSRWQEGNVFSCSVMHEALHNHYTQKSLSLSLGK
VL: DIQMTQSPSSLSASVGDRVTITCLASQTIGTWLAWYQQKPGKAPKLLIYAATSLADGVPSRFSGSGSGTDFTLTISSLQPEDFATYYCQQLYSTPWTFGGGTKLEIKR
notes: also called pZRCIII Hyg P15LC-P15HC; copies: 2 + 2
- Kd [1]: 554 nM
- koff [1]: 0.125 s⁻¹
- kon [1]: 227000 M⁻¹ s⁻¹
- Kd [2]: 0.154 nM
- koff [2]: 0.000142 s⁻¹
- kon [2]: 925000 M⁻¹ s⁻¹

B3: P14 (humanized version of 124F9) (antibody, IgG4, V domains shown)
VH: QVQLQESGPGLVKPSQTLSLTCTVSGYSITSGYYWNWIRQHPGKGLEWIGYISYDGGNKYNPSLKSRVTISRDTSKNQFSLKLSSVTAADTAVYYCARDLDGYESMDYWGQGTSVTVSS
VL: DIVMTQSPLSLSVTPGQPASISCKSSQSLLDINGKTYLNWYLQKPGQSPQLLIYLVSKLDSGVPDRFSGSGSGTDFTLKISRVEAEDVGVYYCWQGTHFPYTFGQGTKVEIKR
notes: Full-length humanized IgG4 made in CHO-S; also called pZRCIII Hyg P14LC-P14HC
- Kd [2]: 2.81 nM
- koff [2]: 0.00151 s⁻¹
- kon [2]: 540000 M⁻¹ s⁻¹

B4: P11 (humanized version of E12) (antibody, IgG4, V domains shown)
VH: QVQLQQSGPELVRPGVSVKISCKGSGYTFTDYALHWVKQSHAESLEWIGVISTYYGDASYNQKFKDKATMTVDISSSTAYLELARLTSEDSAIYYCARDGYLDYWGQGTLVTVSS
VL: QSVLTQPPSVSAAPGQKVTISCSGSSSNIGNNYVSWYVQLPGTAPKLLIYDNNKRFSGVPDRFSGSKSGTSATLGITGLQTGDEADYYCGAWDGSLREAVFGGGTKVTVLR
notes: Full-length humanized IgG4 made in CHO-S; also called pZRCIII Hyg E12LC-E12HC
- Kd [2]: 2.07 nM
- koff [2]: 0.000867 s⁻¹
- kon [2]: 420000 M⁻¹ s⁻¹

B5: 103B2 (antibody, V domains shown)
VH: KPSQSLSLTCSVTGYSITSTYYWNWIRQFPGNKLEWMGYISYDGTNKYNPSLKNRISITRDTSKNRFFLKLNSVTTEDTATYYCAGDDYDRSPWFAYWGQGTLVTVSA
VL: DIVLTQSPASQSASLGESVTITCLASQTIGTWLAWYQQKPGKSPQLLIYAATSLADGVPSRFSGSGSGTKFSFKISSLQAEDFVSYYCQQLYSTPWTFGGGTKLEIKR
notes: Murine hybridoma antibody purified by Protein A; also called murine anti-properdin hybridoma mAb 103B2
- Kd [3]: 0.731 nM
- koff [3]: 0.000509 s⁻¹
- kon [3]: 696000 M⁻¹ s⁻¹
